According to EP4273162A1 (Numab Therapeutics AG, dated 2023):

Experiments:
[1] = target: pre-existing anti-drug antibodies (ADAs) in human sera; test: ELISA, scFv coated, 5% human serum unspiked/spiked, anti-human IgG-HRP
[2] = target: T1, human α-Mesothelin (Acro Biosystems; MSN_H5223) (human, UniProt Q13421 296-580, limits assumed); test: SPR, MSLN immobilised, scFv as analyte, 1:1 Langmuir fit
T1 construct: also called Human MSLN; MSLN

[3] = target: T2, human α-PD-L1 Fc (Sino Biological, 10084-H02H, LC11NO2402) (human, UniProt Q9NZQ7 19-239); test: SPR, PD-L1 Fc immobilised, scFv as analyte, 1:1 Langmuir fit
T2 construct: also called Human PD-L1
T2 sequence (Q9NZQ7 19-239 limits assumed): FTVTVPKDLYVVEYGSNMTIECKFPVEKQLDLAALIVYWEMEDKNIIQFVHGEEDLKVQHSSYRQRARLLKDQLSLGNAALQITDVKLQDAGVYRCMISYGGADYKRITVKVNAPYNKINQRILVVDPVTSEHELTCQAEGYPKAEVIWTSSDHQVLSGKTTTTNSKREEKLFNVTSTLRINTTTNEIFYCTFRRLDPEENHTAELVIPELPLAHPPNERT

T1 sequence (Q13421 other isoform, or with tags, fused parts or gaps limits assumed): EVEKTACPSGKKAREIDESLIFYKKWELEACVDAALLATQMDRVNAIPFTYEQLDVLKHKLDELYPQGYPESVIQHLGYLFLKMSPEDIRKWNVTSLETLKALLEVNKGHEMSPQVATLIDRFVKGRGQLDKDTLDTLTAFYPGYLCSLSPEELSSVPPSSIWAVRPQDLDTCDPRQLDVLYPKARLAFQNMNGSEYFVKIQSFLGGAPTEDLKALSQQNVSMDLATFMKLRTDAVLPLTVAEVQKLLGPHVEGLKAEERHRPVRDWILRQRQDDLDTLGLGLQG

Binder	No of positive serum samples above 30 % CCP (positive sera of 20) [1]	No of screening positive serum samples above 30 % Inhibition (positive sera of 20) [1]	Kd [2] [nM]	Kd [3] [nM]
scFv 54-21-H03-sc01 (PRO1922) (scFv, also called PRO1992; PRO1922 wt) scFv: DIQMTQSPSSLSASVGDRVTITCQASESIYSSLAWYQQKPGKAPKLLIYLASTLASGVPSRFSGSGSGTDFTLTISSLQPEDFATYYCQSTDYTTSTHRNSFGTGTKVTVLGGGGGSGGGGSGGGGSGGGGSEVQLVESGGGLVQPGGSLRLSCAASGFSFSTTYYMCWVRQAPGKGLEWIGCTNTASSVRTYYATWAKGRFTISRDNSKNTVYLQMNSLRAEDTAVYYCARDMGFADYALNLWGQGTLVTVSS	10	16	1.8	
scFv 37-20-B03-sc09.1 PRO2230 (scFv, also called PRO2330; PRO2230 wt) scFv: DIQMTQSPASLSASVGDRVTITCQASQSIGTYLAWYQQKPGKPPKLLIYRAFILASGVPSRFSGSGSGTDFTLTISSLQPEDFATYYCQSNFYSDSTTIGPNAFGTGTKVTVLGGGGGSGGGGSGGGGSGGGGSEVQLVESGGGLVQPGGSLRLSCAASGFSFNSDYWIYWVRQAPGKGLEWIASIYGGSSGNTQYASWAQGRFTISRDNSKNTVYLQMNSLRAEDTAVYFCARGYVDYGGATDLWGQGTLVTVSS	6	18		1.5
